Data published in patent US20080050387A1, “Non-Androgen Dependent Roles for Androgen Receptor and Non-Androgen Related Inhibitors of Androgen Receptor” (priority 2003, published 2008).

Biological target: T1, AR nuclear translocation (Homo sapiens, UniProt P10275, DEL79-80/DUP473-473)
T1 construct: expressed in transfected cells; host or cells: COS-1
T1 sequence (P10275 with tags, fused parts or gaps DEL79-80/DUP473-473): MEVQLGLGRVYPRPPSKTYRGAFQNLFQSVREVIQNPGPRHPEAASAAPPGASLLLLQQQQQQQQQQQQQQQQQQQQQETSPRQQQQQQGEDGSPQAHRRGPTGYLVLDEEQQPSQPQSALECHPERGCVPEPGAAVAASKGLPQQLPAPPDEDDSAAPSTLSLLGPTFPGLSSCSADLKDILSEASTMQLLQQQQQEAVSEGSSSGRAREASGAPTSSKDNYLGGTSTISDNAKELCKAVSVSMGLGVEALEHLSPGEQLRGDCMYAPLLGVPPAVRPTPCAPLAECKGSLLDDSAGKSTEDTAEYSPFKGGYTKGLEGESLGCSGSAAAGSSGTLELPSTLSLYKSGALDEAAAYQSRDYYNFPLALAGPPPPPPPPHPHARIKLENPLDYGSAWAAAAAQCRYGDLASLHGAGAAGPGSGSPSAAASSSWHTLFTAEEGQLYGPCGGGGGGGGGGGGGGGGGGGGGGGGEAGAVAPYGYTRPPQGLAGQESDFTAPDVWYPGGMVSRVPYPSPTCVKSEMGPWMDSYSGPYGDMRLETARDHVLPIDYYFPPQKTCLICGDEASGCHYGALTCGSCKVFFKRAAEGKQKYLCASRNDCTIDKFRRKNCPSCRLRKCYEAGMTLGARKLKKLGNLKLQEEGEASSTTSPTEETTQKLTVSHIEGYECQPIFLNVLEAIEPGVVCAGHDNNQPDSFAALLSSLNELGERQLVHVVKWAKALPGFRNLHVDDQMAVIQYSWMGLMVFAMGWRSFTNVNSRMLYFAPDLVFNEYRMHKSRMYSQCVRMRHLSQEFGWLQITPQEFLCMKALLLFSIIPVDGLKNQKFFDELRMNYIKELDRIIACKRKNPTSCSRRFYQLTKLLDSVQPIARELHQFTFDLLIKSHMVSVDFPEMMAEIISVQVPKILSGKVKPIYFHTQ
Experiment: Subcellular distribution of AR in COS-1 cells (immunofluorescence staining, subcellular fractionation)
Format: cell-based
Description: COS-1 cells were seeded on two-well Lab Tek Chamber slides (Nalge) in DMEM containing 10% CD-FBS 18 h before transfection. DNA was transfected by using FuGENE 6 Transfection Reagent (Boehringer Mannheim). After transfection, cells were treated with either 10 nM DHT or vehicle for 12 h. Then cells were fixed with fixation solution (3% paraformaldehyde and 10% sucrose in PBS) for 20 min on ice, followed by permeabilization with methanol for 10 min on ice. Slides were washed and blocked with 2% BSA in PBS for 15 min at room temperature. Then the cells were stained with 1 μg/ml rabbit polyclonal anti-AR antibody (NH27) and 1 μg/ml mouse monoclonal anti-His antibody (Santa Cruz Biotechnology) sequentially at room temperature for 1 h each. After each first Ab incubation, cells were washed and incubated with TexRed-conjugated goat anti-rabbit IgG and FITC-conjugated goat anti-mouse IgG (ICN), respectively. Stained slides were washed and mounted (Vectashield; Vector Laboratories). Fluorescence images were photographed under 400-fold magnification with a confocal microscope.
To prepare cytosolic and nuclear fractions of cells, cell monolayers were harvested with ice-cold PBS and pelleted. Cold buffer A (10 mM HEPES-KOH/pH 7.9 at 4° C., 1.5 mM MgCl2, 10 mM KCl, 0.5 mM dithiothreitol, 0.2 mM PMSF) equal to 5 times cell volume was used to resuspend the cells. […]

AR level in nuclear fraction (Western blot, after DHT treatment): decreased
nuclear translocation of AR (immunofluorescence staining, DHT treatment): block the nuclear translocation
B1: ARA67: AR N-terminal interacting protein of 585 amino acids (SEQ ID NO:1), matches PAT1; functions as a repressor of AR (protein)
chain: MAAVELEWIPETLYNTAISAVVDNYIRSRRDIRSLPENIQFDVYYKLYQQGRLCQLGSEFCELEVFAKVLRALDKRHLLHHCFQALMDHGVKVASVLAYSFSRRCSYIAESDAAVKEKAIQVGFVLGGFLSDAGWYSDAEKVFLSCLQLCTLHDEMLHWFRAVECCVRLLHVRNGNCKYHLGEETFKLAQTYMDKLSKHGQQANKAALYGELCALLFAKSHYDEAYKWCIEAMKEITAGLPVKVVVDVLRQASKACVVKREFKKAEQLIKHAVYLARDHFGSKHPKYSDTLLDYGFYLLNVDNICQSVAIYQAALDIRQSVFGGKNIHVATAHEDLAYSSYVHQYSSGKFDNALFHAERAIGIITHILPEDHLLLASSKRVKALILEEIAIDCHNKETEQRLLQEAHDLHLSSLQLAKKAFGEFNVQTAKHYGNLGRLYQSMRKFKEAEEMHIKAIQIKEQLLGQEDYEVALSVGHLASLYNYDMNQYENAEKLYLRSIAIGKKLFGEGYSGLEYDYRGLIKLYNSIGNYEKVFEYHNVLSNWNRLRDRQYSVTDALEDVSTSPQSTEEVVQSFLISQNVEGPSC
